How the values were obtained:
[1] = target: Hoxa2(QN-AA) (Hoxa2*);Pbx1a (mouse?;, UniProt P31245;P41778 1-372;1-430, Q188A;N189A|); experiment: EMSA
[2] = target: Hoxa2(QN-AA) (Hoxa2*) (UniProt P31245 1-372, Q188A;N189A); experiment: EMSA
[3] = target: Hoxa1(WM-AA) (UniProt P09022 1-331, W203A;M204A); experiment: EMSA
[4] = target: Hoxa1(WM-AA);Pbx1a (mouse?;, UniProt P09022;P41778 1-331;1-430, W203A;M204A|); experiment: EMSA
[5] = target: Hoxa1 (UniProt P09022 1-331); experiment: EMSA
[6] = target: Hoxa2 (UniProt P31245 1-372); experiment: EMSA
[7] = target: T1, Pbx1a;Prep1 (;, UniProt P41778;P55347 1-430;1-436, |); experiment: EMSA
T1 sequence 1: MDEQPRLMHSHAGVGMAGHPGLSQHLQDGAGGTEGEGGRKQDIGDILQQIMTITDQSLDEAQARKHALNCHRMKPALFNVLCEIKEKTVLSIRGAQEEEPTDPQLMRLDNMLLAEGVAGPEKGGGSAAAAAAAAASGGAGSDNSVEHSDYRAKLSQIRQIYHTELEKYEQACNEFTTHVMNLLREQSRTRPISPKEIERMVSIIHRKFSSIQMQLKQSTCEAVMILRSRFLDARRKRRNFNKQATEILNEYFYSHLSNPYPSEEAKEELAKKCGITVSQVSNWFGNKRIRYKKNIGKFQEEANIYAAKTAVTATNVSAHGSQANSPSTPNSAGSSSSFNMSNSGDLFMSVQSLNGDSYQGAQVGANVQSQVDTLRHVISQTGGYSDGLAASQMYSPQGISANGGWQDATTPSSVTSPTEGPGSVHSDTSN
T1 sequence 2: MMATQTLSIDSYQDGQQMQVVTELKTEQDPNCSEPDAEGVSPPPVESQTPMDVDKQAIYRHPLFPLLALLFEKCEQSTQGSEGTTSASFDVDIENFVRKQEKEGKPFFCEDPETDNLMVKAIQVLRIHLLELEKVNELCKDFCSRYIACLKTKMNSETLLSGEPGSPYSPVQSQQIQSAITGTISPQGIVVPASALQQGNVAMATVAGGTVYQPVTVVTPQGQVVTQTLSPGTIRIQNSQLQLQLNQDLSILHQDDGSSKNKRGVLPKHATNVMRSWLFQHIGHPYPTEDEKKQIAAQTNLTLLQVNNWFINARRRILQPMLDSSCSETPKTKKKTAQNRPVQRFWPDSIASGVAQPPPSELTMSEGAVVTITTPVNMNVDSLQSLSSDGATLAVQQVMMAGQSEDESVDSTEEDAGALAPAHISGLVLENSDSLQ

[8] = target: T2, Hoxa2;Pbx1a (mouse?;, UniProt P31245;P41778 1-372;1-430, |); experiment: EMSA
[9] = target: T1, Pbx1a;Prep1; experiment: competition
[10] = target: T2, Hoxa2;Pbx1a; experiment: competition

Measured: binding result

T2 sequence (P31245 whole entry, one chain of several): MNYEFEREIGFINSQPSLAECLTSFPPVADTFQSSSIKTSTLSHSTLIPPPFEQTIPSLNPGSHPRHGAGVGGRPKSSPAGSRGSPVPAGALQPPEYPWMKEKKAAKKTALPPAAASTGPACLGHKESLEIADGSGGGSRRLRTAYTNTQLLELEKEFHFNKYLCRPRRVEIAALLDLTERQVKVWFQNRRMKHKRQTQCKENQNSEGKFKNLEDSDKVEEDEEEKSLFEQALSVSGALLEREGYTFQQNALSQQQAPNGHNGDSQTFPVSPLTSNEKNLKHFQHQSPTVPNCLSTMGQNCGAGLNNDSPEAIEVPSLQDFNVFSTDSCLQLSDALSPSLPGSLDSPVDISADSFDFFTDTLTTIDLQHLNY
Hoxa1, sequence (P09022 whole entry): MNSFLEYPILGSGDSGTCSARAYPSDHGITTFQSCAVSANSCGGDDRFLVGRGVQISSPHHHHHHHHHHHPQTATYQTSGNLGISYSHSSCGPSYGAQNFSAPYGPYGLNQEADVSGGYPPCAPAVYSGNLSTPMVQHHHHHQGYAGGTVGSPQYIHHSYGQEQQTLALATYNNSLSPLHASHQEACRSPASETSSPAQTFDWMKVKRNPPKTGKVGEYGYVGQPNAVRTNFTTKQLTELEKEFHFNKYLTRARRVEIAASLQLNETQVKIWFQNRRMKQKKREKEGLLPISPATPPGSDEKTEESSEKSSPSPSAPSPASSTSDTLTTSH
Hoxa1(WM-AA);Pbx1a, sequence (P09022 whole entry W203A/M204A, one chain of several): as the sequence (P09022 whole entry) above, with W203A, M204A counted along it
Hoxa1(WM-AA), sequence (P09022 whole entry W203A/M204A): as the sequence (P09022 whole entry) above, with W203A, M204A counted along it
Hoxa2, sequence (P31245 whole entry): as the sequence (P31245 whole entry, one chain of several) above
Hoxa2(QN-AA) (Hoxa2*);Pbx1a, sequence (P31245 whole entry Q188A/N189A, one chain of several): as the sequence (P31245 whole entry, one chain of several) above, with Q188A, N189A counted along it
Hoxa2(QN-AA) (Hoxa2*), sequence (P31245 whole entry Q188A/N189A): as the sequence (P31245 whole entry, one chain of several) above, with Q188A, N189A counted along it

B1: HRE (dsDNA)
DNA 1: TTTCAAAGTTCATCAATCAAGACCTCG
DNA 2: CGAGGTCTTGATTGATGAACTTTGAAA
no binding: [1] | [2] | [3] | [4] | [5]

B2: HRE* (mutated HRE) (dsDNA)
DNA 1: TTTCAAAGTTGGTGGGGGAAGACCTCG
DNA 2: CGAGGTCTTCCCCCACCAACTTTGAAA
no binding: [6] | [7] | [8]

B3: comp* (unlabelled mutated HRE) (dsDNA)
DNA 1: TTTCAAAGTTGGTGGGGGAAGACCTCG
DNA 2: CGAGGTCTTCCCCCACCAACTTTGAAA
no binding: [9] | [10]

— article PMC2425489
